Reference: publication PMC5108336, “Tubular epithelial cells in renal clear cell carcinoma express high RIPK1/3 and show increased susceptibility to TNF receptor 1-induced necroptosis” (Cell Death & Disease, 2016)

T1: Mixed lineage kinase domain-like phosphorylated at Serine 358 (human (endogenous in RCC and kidney …, UniProt Q8NB16 1-471, phosphoserine at 358))
T1 construct: also called pMLKL^Ser358; phospho-MLKL^Ser358; source: endogenous, organ cultures of human RCC grade 1 and adjacent non-tumor kidney (tissue sections)
T1 sequence (looked up): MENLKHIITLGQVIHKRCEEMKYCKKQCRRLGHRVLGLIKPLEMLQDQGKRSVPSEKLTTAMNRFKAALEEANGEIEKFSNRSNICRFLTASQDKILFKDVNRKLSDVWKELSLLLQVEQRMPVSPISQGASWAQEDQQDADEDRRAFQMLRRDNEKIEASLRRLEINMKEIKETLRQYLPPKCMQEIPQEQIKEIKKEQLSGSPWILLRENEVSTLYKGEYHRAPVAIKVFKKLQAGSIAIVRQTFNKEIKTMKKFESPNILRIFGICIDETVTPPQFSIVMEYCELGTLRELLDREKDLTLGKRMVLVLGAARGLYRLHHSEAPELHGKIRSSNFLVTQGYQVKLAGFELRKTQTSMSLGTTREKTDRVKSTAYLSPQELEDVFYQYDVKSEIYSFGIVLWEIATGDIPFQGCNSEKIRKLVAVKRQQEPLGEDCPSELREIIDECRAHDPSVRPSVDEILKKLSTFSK

B1: receptor-interacting protein kinase 3 (natural protein, UniProt Q9Y572-1 1-518, looked up)
chain: MSCVKLWPSGAPAPLVSIEELENQELVGKGGFGTVFRAQHRKWGYDVAVKIVNSKAISREVKAMASLDNEFVLRLEGVIEKVNWDQDPKPALVTKFMENGSLSGLLQSQCPRPWPLLCRLLKEVVLGMFYLHDQNPVLLHRDLKPSNVLLDPELHVKLADFGLSTFQGGSQSGTGSGEPGGTLGYLAPELFVNVNRKASTASDVYSFGILMWAVLAGREVELPTEPSLVYEAVCNRQNRPSLAELPQAGPETPGLEGLKELMQLCWSSEPKDRPSFQECLPKTDEVFQMVENNMNAAVSTVKDFLSQLRSSNRRFSIPESGQGGTEMDGFRRTIENQHSRNDVMVSEWLNKLNLEEPPSSVPKKCPSLTKRSRAQEEQVPQAWTAGTSSDSMAQPPQTPETSTFRNQMPSPTSTGTPSPGPRGNQGAERQGMNWSCRTPEPNPVTGRPLVNIYNCSGVQVGDNNYLTMQQTTALPTWGLAPSGKGRGLQHPPPVGSQEGPKDPEAWSRPQGWYNHSGK
notes: Detected in situ by an anti-RIPK3 antibody; also called RIPK3; source: endogenous, organ cultures of human RCC grade 1 and adjacent non-tumor kidney (tissue sections)

Assays:
[1] = target: B1; test: proximity ligation; in situ PLA (Duolink In Situ Detection Reagents Red) on sections of organ cultures of RCC grade 1 and adjacent non-tumor kidney (NK), untreated (UT) or treated with wtTNF (10 ng/ml), R1TNF or R2TNF (1 ug/ml) for 3 h at 37 °C; signal when two proteins are closer than 40 nm; red spots counted in mTECs in 10 random fields at x40; details: partners not purified
[2] = target: T1, Mixed lineage kinase domain-like …; test: as above; details: partners not purified

| fold increase of PLA signal with R1TNF over untreated (non-tumor kidney organ culture) [1] | fold increase of PLA signal with R1TNF over untreated (non-tumor kidney organ culture) [2] | Binder |
| --- | --- | --- |
| ~3 fold | – | receptor-interacting protein kinase 1 (natural protein, UniProt Q13546-1 1-671, looked up, Detected in situ by an anti-RIPK1 antibody; also called RIPK1; source: endogenous, organ cultures of human RCC grade 1 and adjacent non-tumor kidney (tissue sections)) MQPDMSLNVIKMKSSDFLESAELDSGGFGKVSLCFHRTQGLMIMKTVYKGPNCIEHNEALLEEAKMMNRLRHSRVVKLLGVIIEEGKYSLVMEYMEKGNLMHVLKAEMSTPLSVKGRIILEIIEGMCYLHGKGVIHKDLKPENILVDNDFHIKIADLGLASFKMWSKLNNEEHNELREVDGTAKKNGGTLYYMAPEHLNDVNAKPTEKSDVYSFAVVLWAIFANKEPYENAICEQQLIMCIKSGNRPDVDDITEYCPREIISLMKLCWEANPEARPTFPGIEEKFRPFYLSQLEESVEEDVKSLKKEYSNENAVVKRMQSLQLDCVAVPSSRSNSATEQPGSLHSSQGLGMGPVEESWFAPSLEHPQEENEPSLQSKLQDEANYHLYGSRMDRQTKQQPRQNVAYNREEERRRRVSHDPFAQQRPYENFQNTEGKGTAYSSAASHGNAVHQPSGLTSQPQVLYQNNGLYSSHGFGTRPLDPGTAGPRVWYRPIPSHMPSLHNIPVPETNYLGNTPTMPFSSLPPTDESIKYTIYNSTGIQIGAYNYMEIGGTSSSLLDSTNTNFKEEPAAKYQAIFDNTTSLTDKHLDPIRENLGKHWKNCARKLGFTQSQIDEIDHDYERDGLKEKVYQMLQKWVMREGIKGATVGKLAQALHQCSRIDLLSSLIYVSQN |
| – | ~2.5 fold | B1 |
